Tests used:
Test in all cases: Kd (EC50 corrected by depletion factor)
FUBP3 = molecular target: T1, FUBP3 (UniProt Q96I24)
T1 sequence: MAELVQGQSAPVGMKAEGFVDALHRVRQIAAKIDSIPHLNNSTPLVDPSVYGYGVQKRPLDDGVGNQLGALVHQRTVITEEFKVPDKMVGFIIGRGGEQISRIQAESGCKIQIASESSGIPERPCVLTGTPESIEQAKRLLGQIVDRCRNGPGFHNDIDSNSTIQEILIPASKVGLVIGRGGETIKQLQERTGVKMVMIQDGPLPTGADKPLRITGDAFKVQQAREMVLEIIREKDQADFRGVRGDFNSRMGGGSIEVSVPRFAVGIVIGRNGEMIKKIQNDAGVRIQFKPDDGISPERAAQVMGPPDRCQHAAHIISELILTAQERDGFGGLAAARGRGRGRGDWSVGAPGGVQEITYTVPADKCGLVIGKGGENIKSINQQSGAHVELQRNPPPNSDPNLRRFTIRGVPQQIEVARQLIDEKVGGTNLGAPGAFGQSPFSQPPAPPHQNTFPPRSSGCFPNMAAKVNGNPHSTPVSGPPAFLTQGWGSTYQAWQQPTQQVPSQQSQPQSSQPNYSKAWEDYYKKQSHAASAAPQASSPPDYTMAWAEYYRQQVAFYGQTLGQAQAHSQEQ
Method in brief: (§1)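 Free RNA oligos (0 nM to 30 μM) competed for 1 h at 4°C in HEK293-FT lysate (2.5 mg protein/well) before a 30 min, 4°C pulldown with the same oligos on NHS-Sepharose beads. Bound proteins were quantified by label-free LC-MS/MS and normalised to the control. Kd was found by multiplying EC50, from a four-parameter log-logistic fit, by a protein-dependent depletion factor.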

FIP1L1 = molecular target: T2, FIP1L1 (UniProt Q6UN15)
T2 sequence: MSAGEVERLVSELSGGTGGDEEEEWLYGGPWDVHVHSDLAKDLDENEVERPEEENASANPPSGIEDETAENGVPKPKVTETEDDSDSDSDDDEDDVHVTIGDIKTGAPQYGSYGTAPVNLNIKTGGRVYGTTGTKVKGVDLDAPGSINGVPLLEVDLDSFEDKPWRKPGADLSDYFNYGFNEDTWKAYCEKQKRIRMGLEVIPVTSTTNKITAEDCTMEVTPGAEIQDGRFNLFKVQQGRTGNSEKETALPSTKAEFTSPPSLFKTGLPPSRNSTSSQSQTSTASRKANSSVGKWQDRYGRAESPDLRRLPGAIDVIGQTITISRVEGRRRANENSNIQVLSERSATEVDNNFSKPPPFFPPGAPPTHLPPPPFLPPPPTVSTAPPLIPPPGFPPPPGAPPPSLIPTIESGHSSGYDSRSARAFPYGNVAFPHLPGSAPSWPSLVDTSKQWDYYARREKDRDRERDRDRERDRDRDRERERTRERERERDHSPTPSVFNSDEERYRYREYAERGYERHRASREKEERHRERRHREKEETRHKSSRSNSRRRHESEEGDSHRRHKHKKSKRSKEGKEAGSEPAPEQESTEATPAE
Method in brief: as §1

HNRNPAB = HNRNPAB (UniProt Q99729)
Chain of HNRNPAB (Q99729 whole entry): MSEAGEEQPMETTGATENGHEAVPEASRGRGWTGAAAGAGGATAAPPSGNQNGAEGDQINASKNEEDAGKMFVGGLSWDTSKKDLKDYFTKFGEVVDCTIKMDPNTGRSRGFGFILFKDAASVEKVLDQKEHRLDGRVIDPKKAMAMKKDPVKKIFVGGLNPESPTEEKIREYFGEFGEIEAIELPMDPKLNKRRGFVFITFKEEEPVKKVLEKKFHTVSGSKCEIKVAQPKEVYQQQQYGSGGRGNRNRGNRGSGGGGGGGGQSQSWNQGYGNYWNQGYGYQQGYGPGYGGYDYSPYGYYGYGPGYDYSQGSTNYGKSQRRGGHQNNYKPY
Method in brief: as §1

RPS20 = RPS20 (UniProt P60866)
Method in brief: as §1

CMTR1 = molecular target: T3, CMTR1 (UniProt Q8N1G2)
T3 sequence: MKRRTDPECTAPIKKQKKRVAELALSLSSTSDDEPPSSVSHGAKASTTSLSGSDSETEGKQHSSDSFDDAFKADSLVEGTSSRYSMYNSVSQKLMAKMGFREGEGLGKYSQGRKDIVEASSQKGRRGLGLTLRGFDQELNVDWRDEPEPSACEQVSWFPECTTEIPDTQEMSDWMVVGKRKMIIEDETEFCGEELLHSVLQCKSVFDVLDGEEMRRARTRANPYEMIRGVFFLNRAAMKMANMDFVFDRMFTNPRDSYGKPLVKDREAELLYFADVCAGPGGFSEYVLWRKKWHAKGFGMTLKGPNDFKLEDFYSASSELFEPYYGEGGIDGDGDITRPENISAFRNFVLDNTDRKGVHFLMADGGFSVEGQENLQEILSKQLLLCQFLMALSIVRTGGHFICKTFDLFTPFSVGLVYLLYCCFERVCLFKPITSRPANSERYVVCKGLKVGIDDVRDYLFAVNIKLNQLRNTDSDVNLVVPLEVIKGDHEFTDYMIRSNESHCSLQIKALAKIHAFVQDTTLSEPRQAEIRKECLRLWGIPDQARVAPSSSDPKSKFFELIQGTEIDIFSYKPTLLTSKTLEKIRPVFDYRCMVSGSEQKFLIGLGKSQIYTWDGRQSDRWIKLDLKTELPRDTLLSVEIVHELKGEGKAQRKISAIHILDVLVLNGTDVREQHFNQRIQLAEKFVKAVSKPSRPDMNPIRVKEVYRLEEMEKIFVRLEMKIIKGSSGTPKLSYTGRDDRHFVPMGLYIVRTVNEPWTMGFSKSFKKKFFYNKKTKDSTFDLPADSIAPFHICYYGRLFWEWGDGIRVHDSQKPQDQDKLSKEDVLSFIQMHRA
Method in brief: as §1

HNRNPD = molecular target: T4, HNRNPD (UniProt Q14103)
T4 sequence: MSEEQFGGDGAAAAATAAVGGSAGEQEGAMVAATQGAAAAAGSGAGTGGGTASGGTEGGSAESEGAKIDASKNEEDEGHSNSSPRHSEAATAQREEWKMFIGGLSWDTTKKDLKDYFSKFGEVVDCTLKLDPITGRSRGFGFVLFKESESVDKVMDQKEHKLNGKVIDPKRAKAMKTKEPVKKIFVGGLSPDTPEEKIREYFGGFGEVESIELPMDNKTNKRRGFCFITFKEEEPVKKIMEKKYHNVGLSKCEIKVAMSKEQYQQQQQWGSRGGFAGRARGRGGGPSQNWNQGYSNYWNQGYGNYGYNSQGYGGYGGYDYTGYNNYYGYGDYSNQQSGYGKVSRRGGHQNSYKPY
Method in brief: as §1

LRPPRC = LRPPRC (UniProt P42704)
Method in brief: as §1

Row | Sequence | Kd (FUBP3) [nM] | Kd (FIP1L1) [nM] | Kd (HNRNPAB) [nM] | Kd (RPS20) [nM] | Kd (CMTR1) [nM] | Kd (HNRNPD) [nM] | Kd (LRPPRC) [nM]
1 | AAUAAA | 245 | 8.24 | 464 | 2300 | 209 | 764 | 1130
2 | CUGUCCU | – | – | – | 59.8 | – | – | 1260
3 | UAUUUAU | 241 | 482 | 2300 | – | 591 | 583 | –
